Tests used:
Smc1 = molecular target: T1, Smc1 (S. cerevisiae (budding yeast), UniProt P32908 1-1225); experiment: cross-linking; CLMS with sulfo-SDA; cohesin, Tof1-Csm3 and Chl1 with or without Mrc1 at 300-350 nM, 30 °C 5 min, cross-linker 2 h at 4 °C, UV 365 nm; LC-MS/MS, 1% FDR at residue-pair level; two samples merged; settings: both partners purified
T1 construct: Smc1, budding yeast; the Smc1 chain of m1; Stood in the cross-linking sample as a chain of cohesin; source: purified as part of cohesin, as previously described (Minamino et al. 2018)
T1 sequence (looked up): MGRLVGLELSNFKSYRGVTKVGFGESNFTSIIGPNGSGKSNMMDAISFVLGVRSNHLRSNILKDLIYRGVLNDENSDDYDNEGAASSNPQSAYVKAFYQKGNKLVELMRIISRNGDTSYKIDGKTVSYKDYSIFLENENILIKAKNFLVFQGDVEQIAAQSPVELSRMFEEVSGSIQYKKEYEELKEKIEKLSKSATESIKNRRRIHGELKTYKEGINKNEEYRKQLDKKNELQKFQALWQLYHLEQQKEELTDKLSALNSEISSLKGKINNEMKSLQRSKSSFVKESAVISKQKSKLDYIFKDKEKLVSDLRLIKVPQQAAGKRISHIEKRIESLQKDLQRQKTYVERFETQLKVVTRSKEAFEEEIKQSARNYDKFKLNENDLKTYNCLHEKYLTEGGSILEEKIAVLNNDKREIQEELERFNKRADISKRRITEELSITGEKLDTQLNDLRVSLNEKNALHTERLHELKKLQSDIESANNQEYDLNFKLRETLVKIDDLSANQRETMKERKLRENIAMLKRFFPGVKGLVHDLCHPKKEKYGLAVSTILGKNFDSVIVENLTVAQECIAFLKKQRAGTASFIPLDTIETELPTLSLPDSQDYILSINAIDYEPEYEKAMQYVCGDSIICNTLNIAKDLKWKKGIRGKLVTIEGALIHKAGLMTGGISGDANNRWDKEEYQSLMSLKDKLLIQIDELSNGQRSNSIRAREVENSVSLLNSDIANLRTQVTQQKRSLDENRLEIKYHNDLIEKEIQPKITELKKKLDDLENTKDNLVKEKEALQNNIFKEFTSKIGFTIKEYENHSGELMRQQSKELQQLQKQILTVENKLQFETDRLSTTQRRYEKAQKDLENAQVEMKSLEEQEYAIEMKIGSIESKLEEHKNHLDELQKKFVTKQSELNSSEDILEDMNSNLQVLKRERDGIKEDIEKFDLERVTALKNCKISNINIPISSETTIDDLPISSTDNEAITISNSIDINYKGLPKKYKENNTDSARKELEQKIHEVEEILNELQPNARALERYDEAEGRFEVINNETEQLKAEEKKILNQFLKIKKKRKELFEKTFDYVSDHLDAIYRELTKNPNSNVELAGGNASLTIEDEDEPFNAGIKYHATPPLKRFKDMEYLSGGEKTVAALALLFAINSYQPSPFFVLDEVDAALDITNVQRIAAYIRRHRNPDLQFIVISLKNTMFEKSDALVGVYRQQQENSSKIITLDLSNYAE

Smc3 = molecular target: T2, Smc3 (S. cerevisiae (budding yeast), UniProt P47037 1-1230); experiment: as above; settings: both partners purified
T2 construct: Smc3, budding yeast; the Smc3 chain of m1; Stood in the cross-linking sample as a chain of cohesin; source: purified as part of cohesin, as previously described (Minamino et al. 2018)
T2 sequence (looked up): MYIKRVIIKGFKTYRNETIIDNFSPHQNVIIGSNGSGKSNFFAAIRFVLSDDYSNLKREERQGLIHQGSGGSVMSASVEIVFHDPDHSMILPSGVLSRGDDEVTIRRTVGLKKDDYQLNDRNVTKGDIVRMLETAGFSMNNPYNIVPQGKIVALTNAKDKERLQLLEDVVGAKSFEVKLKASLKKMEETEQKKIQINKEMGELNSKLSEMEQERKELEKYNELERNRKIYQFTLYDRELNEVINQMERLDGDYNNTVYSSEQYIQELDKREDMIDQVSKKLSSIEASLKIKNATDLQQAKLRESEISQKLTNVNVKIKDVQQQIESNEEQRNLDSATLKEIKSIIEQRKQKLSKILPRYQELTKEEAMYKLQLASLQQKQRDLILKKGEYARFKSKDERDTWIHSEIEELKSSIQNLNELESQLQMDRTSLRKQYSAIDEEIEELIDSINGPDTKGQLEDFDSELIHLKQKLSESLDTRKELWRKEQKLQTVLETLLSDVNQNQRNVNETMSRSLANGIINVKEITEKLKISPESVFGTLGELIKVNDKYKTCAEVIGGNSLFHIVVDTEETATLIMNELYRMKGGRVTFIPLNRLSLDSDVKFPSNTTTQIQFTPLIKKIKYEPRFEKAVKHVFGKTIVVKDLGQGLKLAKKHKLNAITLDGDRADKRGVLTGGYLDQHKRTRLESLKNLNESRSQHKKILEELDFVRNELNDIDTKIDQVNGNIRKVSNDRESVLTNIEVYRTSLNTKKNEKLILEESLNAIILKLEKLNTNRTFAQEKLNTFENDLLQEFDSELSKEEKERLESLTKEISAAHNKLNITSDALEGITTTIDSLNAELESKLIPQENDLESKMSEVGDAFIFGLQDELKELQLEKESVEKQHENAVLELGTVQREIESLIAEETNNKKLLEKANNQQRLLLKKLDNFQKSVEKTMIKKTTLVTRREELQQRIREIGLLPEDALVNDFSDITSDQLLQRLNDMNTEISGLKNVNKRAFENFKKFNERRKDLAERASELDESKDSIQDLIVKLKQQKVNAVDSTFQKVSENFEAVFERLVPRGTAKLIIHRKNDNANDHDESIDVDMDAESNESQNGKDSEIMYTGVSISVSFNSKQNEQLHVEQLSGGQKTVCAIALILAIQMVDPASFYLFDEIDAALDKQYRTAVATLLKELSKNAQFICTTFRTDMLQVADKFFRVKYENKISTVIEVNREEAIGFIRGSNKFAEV

B1: Mrc1 (natural protein, S. cerevisiae (budding yeast), UniProt P25588 1-1096, looked up)
chain: MDDALHALSSLTAKKRTTTYKKVAVPILDENDNTNGNGPNDIDNPPELTGNGFLFANATLNRVKNRLEGKKAPEQNHNNGKDRSENSLPTQLISNLYDGGEELEKSEVKDNSYSEKNVSSSFTQTQRIPVSIQQDKVFNVPIHSVNDGKPTQLIKEDGLVNETSQALKTPLTTGRPGATQRIDSSGATSQTQPIKSIEPQSQIITTSSNHSNALSPKIPIIPTELIGTSPLFQSIQNRGPDTQMDVPPQTAHDEDKTQAIGIPQATHQEQKTQIDTVAQTLQDEVPHTLKIREIQSELASEDSKREKARNVEYKKPQKPIPTKKFFSKESFLADFDDSSSNEDDDIKLENAHPKPVQNDDELHENKSVELNLTDETRINEKRVPLLSSYANNLKREIDSSKCITLDLDSDSDEYGDDDMDSIKLSKDESVLPISQLSKATILNLKARLSKQNQKLSQRPNKSKDPKVDHNVLLNTLRKASRKQILDHQKEVIETKGLKLEDMAKEKEIVENLLEQEILRNKRIRQKEKRREKLEENDFQLNAHDSGSDSGSESSGFALSGNEIADYESSGSENDNRRESDSEKEDDEIILKQKKSHHVKHIINESDSDTEVEAKPKEKADESLPKRIAINLGHYGDNIGEDTDKFQETNVLDTQNIEEVMAERNTIENEVKDDVYVNEEADEAIRRQLIDKEKLQLKQKEKEHEAKIKELKKRGVTNFFEMEAEESEDEWHGIGGADGEGSDDYDSDLEKMIDDYSKNNFNPHEIREMLAAENKEMDIKMINKILYDIKNGGFRNKRAKNSLELELSDDDEDDVLQQYRLKRRELMRKRRLEIGDDAKLVKNPKSSAFFESMVEDIIEYKNPFGAEEEYNLDITSTATDLDTQDNSINVGDNTGNNEQKPVDQKNKKVIISEDFVQKSLSFLKSNNYEDFETDKELSRIQHGNDEAIEDLYTLKQNSSIKSFTNSQTDSTTSKTVNTIIDLEKRPEDEDEVENGDTSLVGVFKHPSIIKSFASRTDINDKFKEGNKTVKILKSYKTVGSSKASITYMGKTRKLIAPKRKTEGSHRYHHDHHNKKMKMKTKTKSNKLFESGQDSFDN
notes: Mrc1, budding yeast; also called Flag-tagged Mrc1; source: purified as previously described (Yeeles et al. 2017)
binding result (Smc1): binds
binding result (Smc3): binds

Reference: paper PMC10247859, “Replisome-cohesin interactions provided by the Tof1-Csm3 and Mrc1 cohesion establishment factors” (Chromosoma, 2023)
